Read-outs that look alike come from different tables or passages of the source.

What all share (test): co-sedimentation
The target of experiment [1] is taxol-stabilized microtubules (MTs) of porcine brain tubulin (porcine) (UniProt P02550).
For experiment [2] the target is unchanged. This is another data set of the same source.
Experiment [3] addresses subtilisin-treated MTs (s-MTs) (porcine) (UniProt P02550).

Sequence of UniProt P02550 (P02550 whole entry): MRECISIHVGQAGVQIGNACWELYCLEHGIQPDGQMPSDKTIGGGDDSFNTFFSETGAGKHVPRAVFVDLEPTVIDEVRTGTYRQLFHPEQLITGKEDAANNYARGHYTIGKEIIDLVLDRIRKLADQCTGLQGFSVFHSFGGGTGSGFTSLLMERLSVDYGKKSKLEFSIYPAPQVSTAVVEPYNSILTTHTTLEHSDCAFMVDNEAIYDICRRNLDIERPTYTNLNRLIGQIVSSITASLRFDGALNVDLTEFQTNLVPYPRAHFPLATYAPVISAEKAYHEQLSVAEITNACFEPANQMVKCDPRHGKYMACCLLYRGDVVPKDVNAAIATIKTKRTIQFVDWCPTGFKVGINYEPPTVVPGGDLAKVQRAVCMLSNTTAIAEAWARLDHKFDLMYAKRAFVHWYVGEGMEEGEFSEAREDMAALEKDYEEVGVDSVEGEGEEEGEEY

The Kd is the equilibrium constant for the complex coming apart. Low values mean higher affinity, high ones lower affinity. Turning to “Abl2 with MBP cleaved off (from UniProt Q4JIM5 74-1182) (enzyme)”, the Kd in experiment [1] was determined as 170 nM.

In turn, “Abl2-557-C (from UniProt Q4JIM5 557-1182) (domain or fragment)” showed a Kd in experiment [1] of 700 nM.

Take “Abl2-N-688 (from UniProt Q4JIM5 74-688) (domain or fragment)”: the Kd in experiment [1] worked out at 240 nM.

With “MBP-tagged Abl2 (from UniProt Q4JIM5 74-1182) (enzyme)”, the equilibrium dissociation constant (Kd) in experiment [2] is 360 nM; in experiment [3], > 3000 nM; in experiment [1], 210 nM.

In experiment [1], “MBP-tagged Abl2-557-688 (from UniProt Q4JIM5 557-688) (domain or fragment)” gave a Kd of 1300 nM.

Values taken from paper PMC6891085.
